Reference: paper PMC5879678 (Proceedings of the National Academy of Sciences of the …, 2018)

Key:
[1] = target: the molecule itself; assay: Thioflavin T fluorescence
AUC = target: the molecule itself; assay: AUC

Protein	binding result [1]	stoichiometry N (AUC)
TasA239 (TasA core domain, amino acids 28-239) (domain or fragment, Bacillus subtilis, UniProt P54507 28-239, looked up, 2H,15N,13C isotope labelling in the NMR samples) AFNDIKSKDATFASGTLDLSAKENSASVNLSNLKPGDKLTKDFQFENNGSLAIKEVLMALNYGDFKANGGSNTSPEDFLSQFEVTLLTVGKEGGNGYPKNIILDDANLKDLYLMSAKNDAAAAEKIKKQIDPKFLNASGKVNVATIDGKTAPEYDGVPKTPTDFDQVQMEIQFKDDKTKDEKGLMVQNKYQGNSIKLQFSFEATQWNGLTIK	binds	–
TasA261 (mature secreted TasA, amino acids 28-261) (natural protein, Bacillus subtilis, UniProt P54507 28-261, looked up, 2H,13C,15N isotope labelling in the NMR samples) AFNDIKSKDATFASGTLDLSAKENSASVNLSNLKPGDKLTKDFQFENNGSLAIKEVLMALNYGDFKANGGSNTSPEDFLSQFEVTLLTVGKEGGNGYPKNIILDDANLKDLYLMSAKNDAAAAEKIKKQIDPKFLNASGKVNVATIDGKTAPEYDGVPKTPTDFDQVQMEIQFKDDKTKDEKGLMVQNKYQGNSIKLQFSFEATQWNGLTIKKDHTDKDGYVKENEKAHSEDKN	–	12
